Seven substances from PMC9210681 can be followed below.

The subject of series [1] is AtsR:C123SC187S (Corynebacterium glutamicum (RES167 parental strain)). The experiment in a line: EMSA. To be noted: apparent KD; unit inferred, nM implied from AtsR; 10 mM Tris-HCl pH 7.4 (Fig. 6A legend: pH 8.0), 5 mM MgCl2, 50 mM KCl, 5% glycerol, 0.1% NP40, 1 ug poly(dI:dC), 1 mM DTT, 20 ul, 40 ng DNA, room temperature ….
Series [2] relates to AtsR (NCgl0886) (Corynebacterium glutamicum (RES167 parental strain)). Briefly: EMSA. As to conditions: apparent KD; 10 mM Tris-HCl pH 7.4 (Fig. 6A legend: pH 8.0), 5 mM MgCl2, 50 mM KCl, 5% glycerol, 0.1% NP40, 1 ug poly(dI:dC), 1 mM DTT, 20 ul, 40 ng DNA, room temperature …. For orientation: In EMSA bound probe runs differently from free probe, usually more slowly.
In series [3] the target is His6-AtsR (Corynebacterium glutamicum). Briefly: cross-linking; disulfide bond formed by oxidant: 20 µM protein with 5 mM H2O2 or 4 mM CHP for 30 min, boiled, 15% nonreducing SDS-PAGE, Coomassie stain.
The test system of series [4] is T1, AtsR (NCgl0886) (Corynebacterium glutamicum (RES167 parental strain)), ORF:74efc9ce.
T1 sequence: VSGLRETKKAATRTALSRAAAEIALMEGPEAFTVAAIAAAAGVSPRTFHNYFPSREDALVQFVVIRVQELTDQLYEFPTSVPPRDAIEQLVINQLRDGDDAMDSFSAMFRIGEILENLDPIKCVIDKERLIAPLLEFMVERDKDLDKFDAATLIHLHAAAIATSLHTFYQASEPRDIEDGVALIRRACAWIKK
The experiment in a line: EMSA. To be noted: 10 mM Tris-HCl pH 7.4 (Fig. 6A legend: pH 8.0), 5 mM MgCl2, 50 mM KCl, 5% glycerol, 0.1% NP40, 1 ug poly(dI:dC), 1 mM DTT, 20 ul, 40 ng DNA, room temperature ….

For series [5], the target named is His-tag-free AtsR:C123SC187S (Corynebacterium glutamicum). Briefly: SEC; Superdex 200 10/300 GL, 50 mM potassium phosphate pH 7.4, 0.15 M NaCl, calibrated with mass markers; native AtsR untreated; AtsR:C123SC187S reduced (20 µM protein with 50 mM DTT). (SEC sorts molecules by how far they enter the pores of the column.)
Series [6] addresses AtsR (NCgl0886), native protein as run on the size exclusion column (Corynebacterium glutamicum). The experiment in a line: SEC; Superdex 200 10/300 GL; AtsR incubated with an oxidant before the run (CHP in the text, H2O2 in the legend); two species, oxidized dimer and native dimer.
For series [7] the target is unchanged. Briefly: not stated; reduced AtsR, Additional file 1 Fig. S10A (Purification of AtsR).
The target is the same in series [8]. Briefly: SEC; Superdex 200 10/300 GL, 50 mM potassium phosphate pH 7.4, 0.15 M NaCl, calibrated with mass markers; native AtsR untreated; AtsR:C123SC187S reduced (20 µM protein with 50 mM DTT).
In series [9] the test system is T2, AtsR:C123SC187S C123S;C188S (Corynebacterium glutamicum (RES167 parental strain)), ORF:74efc9ce.
T2 sequence: T1 sequence with C123S, C188S
Briefly: EMSA. To be noted: 10 mM Tris-HCl pH 7.4 (Fig. 6A legend: pH 8.0), 5 mM MgCl2, 50 mM KCl, 5% glycerol, 0.1% NP40, 1 ug poly(dI:dC), 1 mM DTT, 20 ul, 40 ng DNA, room temperature ….

Positions count from the first letter of the chain named.

Consider Pncgl0887 (fragment A, 232 bp), for which the Kd in series [1] came to 42 nM; in [2], 34 nM.

One may read the stoichiometry N as the number of molecules, sites or subunits per partner or assembly. As for His6-AtsR (natural protein), in series [3], the stoichiometry N is 2. For the substance “GTTGTAGACAACAGTCAGATCGCCGTCATCGTATTCATCAAGAATATTGGTGACCTTCTCACGATCCTCTGCGGATATATCCATGGCAGAATCTGCATCAAAAGTCATCGAGATGATGCCGGTAGTCTCATCTGCACTCAGTGGACTAATCGACTCAATATCTGCGGCGATCTTCTCCGCAGGTACACCCTGAGCCTCCAGGGCTGGGGTCATCTGAGCAGCCACACCCTG (double strand) [ncgl0887 coding region control (232 bp)]”, in series [4], the binding entry is “no binding”. With “His-tag-free AtsR:C123SC187S (natural protein)”, in series [5], the stoichiometry N turned out to be 2. In the case of “AtsR (NCgl0886), native protein as run on the size exclusion column (natural protein)”, the stoichiometry N in series [6], in series [7] and in [8] was 2 each time. In the case of “GTGGGCAGCGGAATTTCCATACCTTTAAGGATATGCACCGGGGGAAACTATGGGGATTTTGGGGGAGGTTGTTACAAAACCATACGTCTGTGAAGATATGACGAGTGCATGCCCAAAATAATGCATAGGAAAAAGGAAGAGTTAACAATGCGTAAAGGAATTTCCCGCGTCCTCTCGGTAGCGGTTGCTAGTTCTATTGGATTCG (double strand) [Pncgl0884 (205 bp)]”, in [4], the binding entry is listed as “no binding”. Take “GCCCACAGCATAGAACTAAAACAGTATGCTTGTCCTGCTAAATGTGAATTTTTAAGAGATTCATCCCACACAATTACGAAAAAACCAGATTGCCCACAAATTAGTCTTCGAACTTTAATCAACACCACACCCAAAGCTAAACTTGCGCTCGTTGTGCAAAATTGCATTCAGGCTGAAAAATTCCTAAAGGGACTCCGTCCGAATAATTGGAAAGCCCAGAAGAACAGTCAAC (double strand) [Pncgl0887 (fragment A, 232 bp)]”: in [4], the Kd turned out to be 34 nM and the binding entry is recorded as “binds”. In addition, in series [9], the Kd was found to be 42 nM and the binding entry is on record as “binds”.
